In US9290541B2, “TCL1 peptides for immunotherapy” (Board of Regents, The University of Texas System, priority 2011, dated 2016):

Target: T1, HLA-A2 (Homo sapiens, UniProt P04439, D140Y/D185E/D98H/E176V/E277Q/G131W/G231S/I119V/I121R/I166T/I218V/L300P/L318F/N151K/N90K/P208A/P217A/Q86G/Q94H/R138H/R169H/T345S)
T1 construct: endogenous in cells; host or cells: T2 hybridoma cells (TAP-deficient, HLA-A2+)
Test: HLA-A2-binding assay (T2 binding index)
Settings: T2 cells, 20 μg/ml peptide, 24 hours
Protocol: FIGS. 4A-D: TCL171-78 is the minimal HLA-A*0201-binding peptide. (FIG. 4A) TCL165-79 peptide-specific T cells derived from HLA-A2^+ normal donors were incubated in the presence or absence of T2 cells and TCL165-79 derived truncated peptides (SEQ ID NOS:1-2; SEQ ID NOS:12-17; SEQ ID NOS:3-11; and SEQ ID NO:18) Flu matrix peptide (FMP58-66) and Gag77-85 peptide were used as controls. After 18 hours, the production of IFN-γ was determined in the supernatants by ELISA. (FIG. 4B) T2 cells were incubated with TCL165-79-derived truncated peptides (SEQ ID NOS:1-2; SEQ ID NOS:12-17; SEQ ID NOS:3-11; and SEQ ID NO:18), and the HLA-A2 binding affinity of each peptide was determined by flow cytometry. The T2 binding index was calculated as described in Materials and Methods. […] (FIG. 4D) TCL165-79 peptide-specific CD8^+ T cells or irrelevant T-cell line were stained with TCL171-78 or HIV Gag77-85 tetramers and analyzed by flow cytometry. […]
TAP-deficient T2 cells were incubated with 20 μg/ml of peptides and 3 μg/ml of β2-microglobulin (Sigma-Aldrich, Cat # M4890) for 24 hours at 37° C. and 5% CO2 in air. The cells were then stained with anti-HLA-A2 PE antibody (BD Biosciences, Cat #560168), and the level of HLA-A2 expression was determined by flow cytometry. […]

Sequence: TQIGPSLLPIMWQLY [TCL165-79]
- binding to HLA-A2: bound to TAP-deficient T2 cells
